Experimental data reported in patent US20220168438A1 (Daiichi Sankyo, published 2022).

Legend:
human CLDN3 = target: T1, human CLDN3 (human, UniProt O15551 1-220); assay: flow cytometry on transiently transfected 293T cells
T1 construct: whole, on cells
T1 sequence (looked up): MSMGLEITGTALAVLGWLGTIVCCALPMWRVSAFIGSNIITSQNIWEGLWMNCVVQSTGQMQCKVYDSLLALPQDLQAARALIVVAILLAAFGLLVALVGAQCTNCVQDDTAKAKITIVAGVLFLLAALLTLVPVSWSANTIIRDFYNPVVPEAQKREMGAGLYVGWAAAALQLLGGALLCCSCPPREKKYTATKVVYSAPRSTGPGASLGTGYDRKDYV
Protocol: (§1) Binding activity of the mouse anti-CLDN6 antibodies produced in Example 6 to human CLDN6 and its family molecules, CLDN3, CLDN4, and CLDN9, was evaluated by using a flow cytometry method. Human CLDN3/pCMV6-Entry, human CLDN4/pCMV6-Entry, human CLDN6/pCMV-Entry, human CLDN9/pCMV6-Entry, or pCMV6-Entry purchased from OriGene Technologies, Inc. was transiently transferred into 293T cells (Thermo Fisher Scientific, HCL4517) by using Lipofectamine 2000 (Thermo Fisher Scientific), and the cells were cultured under conditions of 37° C. and 5% CO₂ overnight, and then a cell suspension was prepared. The transfected 293T cell suspension was centrifuged to remove the supernatant, and a mouse anti-CLDN6 antibody (clone number: B1 or C7) or a mouse IgG1 control antibody (R&D Systems, Inc.) was then added and suspended to a final concentration of 30 μg/mL, 10 μg/mL, 3.3 μg/mL, or 1.1 μg/mL, and the resultant was left to stand at 4° C. for 1 hour. The cells were washed twice with Dulbecco's phosphate buffered saline (Sigma-Aldrich Co. LLC) containing 5% fetal bovine serum (Hyclone) (hereinafter, referred to as 5% FBS-containing PBS), and FLUORESCEIN-CONJUGATED GOAT IGG FRACTION TO MOUSE IGG (WHOLE MOLECULE) (MP Biomedicals, Inc.) 500-fold diluted with 5% FBS-containing PBS was then added thereto, and the cells were suspended and left to stand at 4° C. for 1 hour. After washing twice with 5% FBS-containing PBS, detection was carried out by using a flow cytometer (FC500; Beckman Coulter, Inc.). Data analysis was carried out by using FlowJo (Tree Star, Inc.). To confirm each transfection, the cells were permeabilized with 0.25% Tween 20-containing PBS, and then a mouse anti-FLAG antibody (Sigma-Aldrich Co. LLC) was used. […] In each graph in FIG. 11, the ordinate represents FITC fluorescence intensity indicating the amount of the binding antibody and the abscissa represents antibody concentrations.
(§2) The binding activity of the humanized anti-CLDN6 antibody produced in Example 10 to human CLDN6 and its family molecules, CLDN3, CLDN4, and CLDN9, was evaluated by using a flow cytometry method.

human CLDN4 = target: T2, human CLDN4 (human, UniProt O14493 1-209); assay: as above
T2 construct: whole, on cells
T2 sequence (looked up): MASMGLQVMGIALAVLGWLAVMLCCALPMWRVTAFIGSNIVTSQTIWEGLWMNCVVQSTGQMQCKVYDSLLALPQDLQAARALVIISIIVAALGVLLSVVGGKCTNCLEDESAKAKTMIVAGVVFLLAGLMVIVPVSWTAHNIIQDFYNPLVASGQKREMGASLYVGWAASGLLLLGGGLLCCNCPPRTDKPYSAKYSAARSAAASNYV
Protocol: as §1, §2

human CLDN6 [1] = target: T3, human CLDN6 (human, UniProt P56747 1-220); assay: immunoprecipitation from NTERA-2 cell lysate with 218B1, SDS-PAGE, mass spectrometry of the 18 kDa band
T3 construct: Four-transmembrane protein; It was expressed on 293T cells from human CLDN6/pCMV-Entry (OriGene) and on CHO-K1 cells by cDNA transfection; it was endogenous in the NTERA-2 lysate used for immunoprecipitation; also called claudin-6; human claudin-6
T3 sequence: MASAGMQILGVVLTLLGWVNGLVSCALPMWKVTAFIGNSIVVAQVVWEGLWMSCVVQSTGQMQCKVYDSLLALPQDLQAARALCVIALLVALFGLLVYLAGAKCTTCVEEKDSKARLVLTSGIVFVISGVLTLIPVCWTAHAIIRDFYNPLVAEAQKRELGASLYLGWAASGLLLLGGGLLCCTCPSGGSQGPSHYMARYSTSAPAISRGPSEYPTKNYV
Protocol: 2×10⁷ NTERA-2 cells were collected and washed twice with PBS. The cells were collected by using a cell scraper, and centrifuged at 1500 rpm for 5 minutes. After the supernatant was removed, the cells were resuspended in 2 mL of the lysis buffer, and treated at 4° C. for 30 minutes. The resultant was centrifuged (13000 rpm, 20 minutes, 4° C.) to prepare a cell lysate. Protein G Sepharose/lysis buffer (50% slurry; 180 μL) was added to the cell lysate, and the resultant was rotated at 4° C. for 30 minutes and then centrifuged at 4° C. for 1 hour, and the supernatant was collected. The 218B1 antibody (about 9 μg) was added to the supernatant, and the resultant was rotated at 4° C. for 30 minutes, to which Protein G Sepharose/lysis buffer (50% slurry; 180 μL) was then added, and the resultant was rotated at 4° C. for 1 hour. The Protein G Sepharose was washed six times with the lysis buffer (1 mL), and then resuspended in 1×SDS sample buffer. After the suspension was treated at 100° C. for 5 minutes, the solution was collected as a sample for SDS-PAGE. SDS-PAGE was carried out in the same manner as in 2-2), and the electrophoresis gel was stained with CBB. The part corresponding to 18 kDa was cut out of the electrophoresis gel, and subjected to mass spectrometry.

human CLDN9 [2] = target: T4, human CLDN9 (human, UniProt O95484 1-217); assay: flow cytometry on transiently transfected 293T cells, 1.1-30 µg/mL
T4 construct: Expressed on 293T cells from human CLDN9/pCMV6-Entry (OriGene); Transfection was confirmed with an anti-FLAG antibody
T4 sequence: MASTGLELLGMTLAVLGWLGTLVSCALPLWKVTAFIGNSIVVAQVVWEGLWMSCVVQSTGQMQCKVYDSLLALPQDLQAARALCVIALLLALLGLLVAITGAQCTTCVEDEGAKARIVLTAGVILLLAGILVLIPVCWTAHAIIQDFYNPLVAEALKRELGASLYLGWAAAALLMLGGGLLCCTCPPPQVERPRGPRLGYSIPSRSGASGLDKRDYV
Protocol: Binding activity of the mouse anti-CLDN6 antibodies produced in Example 6 to human CLDN6 and its family molecules, CLDN3, CLDN4, and CLDN9, was evaluated by using a flow cytometry method. Human CLDN3/pCMV6-Entry, human CLDN4/pCMV6-Entry, human CLDN6/pCMV-Entry, human CLDN9/pCMV6-Entry, or pCMV6-Entry purchased from OriGene Technologies, Inc. was transiently transferred into 293T cells (Thermo Fisher Scientific, HCL4517) by using Lipofectamine 2000 (Thermo Fisher Scientific), and the cells were cultured under conditions of 37° C. and 5% CO₂ overnight, and then a cell suspension was prepared. The transfected 293T cell suspension was centrifuged to remove the supernatant, and a mouse anti-CLDN6 antibody (clone number: B1 or C7) or a mouse IgG1 control antibody (R&D Systems, Inc.) was then added and suspended to a final concentration of 30 μg/mL, 10 μg/mL, 3.3 μg/mL, or 1.1 μg/mL, and the resultant was left to stand at 4° C. for 1 hour. […] In each graph in FIG. 11, the ordinate represents FITC fluorescence intensity indicating the amount of the binding antibody and the abscissa represents antibody concentrations.

human CLDN6 [3] = target: T3, human CLDN6; assay: FACS on CHO-K1 cells transfected with human claudin-6 cDNA
human CLDN9 [4] = target: T4, human CLDN9; assay: flow cytometry on transiently transfected 293T cells, 0.8-100 nM
Protocol: (§3) The binding activity of the humanized anti-CLDN6 antibody produced in Example 10 to human CLDN6 and its family molecules, CLDN3, CLDN4, and CLDN9, was evaluated by using a flow cytometry method. Used were 293T cells transiently transfected in the same manner as in Example 7-1. To cells into which a human CLDN6 or human CLDN9 gene had been transferred, the humanized anti-CLDN6 antibody H1L1, H2L2, H1L3, H2L4, or H3L3, or a human IgG1 control antibody (Calbiochem) was added and suspended to a final concentration of 100 nM, 20 nM, 4 nM, or 0.8 nM, and the resultant was left to stand at 4° C. for 30 minutes. To cells into which a human CLDN3 or human CLDN4 gene, or an empty vector had been transferred, the humanized anti-CLDN6 antibody H1L1, H2L2, H1L3, H2L4, or H3L3 was added and suspended to a final concentration of 100 nM, and the resultant was left to stand at 4° C. for 30 minutes. The cells were washed with Dulbecco's phosphate buffered saline (Sigma-Aldrich Co. LLC) containing 5% fetal bovine serum (Hyclone) (hereinafter, referred to as 5% FBS-containing PBS), and FITC AffiniPureF (ab′)2 Fragment Goat Anti-Human IgG (H+L) (Jackson ImmunoResearch Laboratories Inc.) 150-fold diluted with 5% FBS-containing PBS was then added thereto, and the cells were suspended and left to stand at 4° C. for 30 minutes. After washing with 5% FBS-containing PBS, detection was carried out by using a flow cytometer (FC500; Beckman Coulter, Inc.). Data analysis was carried out by using FlowJo (Tree Star, Inc.), and mean fluorescence intensity (MFI) of FITC, which indicates the amount of the binding antibody, was calculated. […] In each graph in FIG. 13, the abscissa represents antibody concentrations and the ordinate represents MFI.

human CLDN6 [5] = target: T3, human CLDN6; assay: as above
Protocol: as §3

| Binder | binding result (human CLDN3) | binding result (human CLDN4) | binding result (human CLDN6 [1]) | binding result (human CLDN9 [2]) | binding result (human CLDN6 [3]) | binding result (human CLDN9 [4]) | binding result (human CLDN6 [5]) |
| --- | --- | --- | --- | --- | --- | --- | --- |
| mouse anti-CLDN6 antibody B1 (antibody, V domains shown, Mouse monoclonal antibody purified from hybridoma 218B1 culture supernatant; also called B1 antibody; 218B1) VH: EVQLQQSGPELVKPGASVKISCKTSGYTFTEYTMHWVQQSHGKSLEWIGGVNPNSGDTSYNQKFKGKATLTVDKSSSTAYMELRSLTSEDSAVYYCARPGGYDVGYYAMDYWGQGTSVTVSS VL: DIQMTQTASSLSASLGDRVTISCRASQDINNYLNWYQQKPDGTVKLLIYFTSRLHSGVPSRFSGSGSGTHYSLTITNLEQEDIATYFCQQGYPLPWTFGGGTKLEIK | no binding (tested: 30 µg/mL (highest concentration tested)) | no binding (tested: 30 µg/mL (highest concentration tested)) | binds | binds | – | – | – |
| mouse anti-CLDN6 antibody C7 (antibody, V domains shown, Mouse monoclonal antibody purified from hybridoma 218C7 culture supernatant; also called C7 antibody; 218C7) VH: EVQLQQSGPELVKPGASVKISCKTSGYTFTEYTMHWVQQSHGKSLEWIGGVNPNSGDTSYNQKFKGKATLTVDKSSSTAYMELRSLTSEDSAVYYCARPGGYDVGYYAMDYWGQGTSVTVSS VL: DIQMTQTASSLSASLGDRVTISCRASQDINNYLNWYQQKPDGTVKLLIYSTSRLHSGVPSRFSGSGSGTHYSLTITHLEQEDIATYFCQQGYPLPWTFGGGTKLEIK | no binding (tested: 30 µg/mL (highest concentration tested)) | no binding (tested: 30 µg/mL (highest concentration tested)) | – | binds | binds | – | – |
| humanized anti-CLDN6 antibody H1L3 (antibody, human IgG1, kappa, L234A L235A, V domains shown, Human IgG1 LALA heavy chain and human kappa light chain; also called H1L3 antibody; hH1 + hL3) VH: QVQLVQSGAEVKKPGASVKVSCKASGYTFTEYTMHWVRQAPGQGLEWMGGVNPNSGDTSYAQKFQGRVTITADTSTSTAYMELSSLRSEDTAVYYCARPGGYDVGYYAMDYWGQGTLVTVSS VL: DIQMTQSPSSLSASVGDRVTITCRASQDINNYLNWYQQKPGGAVKLLIYFTSRLHSGVPSRFSGSGSGTDYTLTISSLQPEDFATYYCQQGYPLPWTFGGGTKVEIKR | no binding (tested: 100 nM) | no binding (tested: 100 nM) | – | – | – | binds | binds |
